Assay results from the supplement of paper PMC10567573.

B1: HESX1 (parent)
chain: HVPNPPSGISFPSVVDHPMPEERA
B2: WEE1 (parent)
chain: INPFTPDSLLLHSSGQCRRRKRTY

Variants of: B1
Assay: protein stability index of a GFP-peptide fusion (GPS, HEK-293T) (PSI 1-6); higher = more stable
Conditions: c terminus: a fixed tail appended
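Note: lentivirally expressed fusions sorted by FACS into six bins by GFP to DsRed ratio, PSI derived from sequencing read proportions per bin multiplied by bin number.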

Variant	protein stability index
G8N	3.48
G8W	2.87
G8P	4.09
G8A	3.2
G8V	2.87
G8Y	2.09
G8K	3.62
G8L	3.17
G8T	2.91
G8H	3.49
G8Q	3.18
G8F	2.84
G8I	2.83
G8S	3.03
P6E	2.98
P6K	1.78
P6V	2.11
P6L	2.62
P6D	2.56
P6H	1.83
P6T	2.13
P6G	1.81
P6C	1.69
P6I	2.24

Variant	protein stability index
P6A	2.34
P20V	2.55
P20Q	2.78
P20S	2.82
P20A	2.74
P20L	2.48
P20D	2.98
P20Y	2.24
P20E	2.48
P20I	2.49
P20G	2.61
P20H	2.65
F11R	4.37
F11Q	4.83
F11D	5.23
F11K	5.12
F11G	4.65
F11N	4.54
F11M	4.88
F11L	4.93
F11Y	4.22
F11H	4.48
F11C	4.39

Variants of: B2
Assay: as above
Conditions: c terminus: a fixed tail appended

Variant	protein stability index
R20Q	2.81
R20K	3.23
R20G	3.41
L10I	3.61
L10R	3.76
L10V	3.81
R18L	3.2
R18W	2.29
C17W	3.35
R22D	3.37
R22P	3.23
R22K	3.59
H12P	3.4
H12C	2.57
N2Y	2.55
N2C	3.69
N2P	3.29
N2E	3.93
Y24Q	3.69

Variant	protein stability index
Q16M	2.92
Q16E	3.69
L11Y	3.75
I1H	3.89
I1Q	3.95
K21N	3.59
K21C	2.02
K21P	3.08
R19S	3.78
R19H	3.32
S14Q	3.89
S14R	3.81
T23P	3.26
D7P	3.09
D7T	3.51
F4P	4.58
L9E	3.96
L9Q	3.68
